Positions count from the first letter of the chain named. Names may count otherwise.
B1: HC-R098H (antibody, V domains shown)
VH: EVQLQQSGPELVKPGASVKISCKTSGYTFTEYTMHWMKQSHRKSLEWIGGINTNNGGTGYNQKFKGKATLTVDKSSSTAYMELRSLTSEDSAVYFCAHGSLYSYGNSYFDYWGQGTLVTVSS
VL: QIVLTQSPAIMSASPGEKVTITCSATSSVSYMHWFQQKPGTSPKLWIYGTSNLASGVPARFSGSGSGTSYSLTISRMEAEDAATYYCQQRSSYPFTFGQGTKVEIK
B2: HC-Y111T (antibody, V domains shown)
VH: B1 VH with H98R, Y111T
VL: B1 VL
B3: HC-S103G (antibody, V domains shown)
VH: B1 VH with H98R, S103G
VL: B1 VL
B4: HC-Y111C (antibody, V domains shown)
VH: B1 VH with H98R, Y111C
VL: B1 VL
B5: HC-N052V (antibody, V domains shown)
VH: B1 VH with N52V, H98R
VL: B1 VL
B6: HC-N106E (antibody, V domains shown)
VH: B1 VH with H98R, N106E
VL: B1 VL
B7: HC-Y032D (antibody, V domains shown)
VH: B1 VH with Y32D, H98R
VL: B1 VL
B8: HC-N052C (antibody, V domains shown)
VH: B1 VH with N52C, H98R
VL: B1 VL
B9: HC-F029E (antibody, V domains shown)
VH: B1 VH with F29E, H98R
VL: B1 VL
B10: HC-T033C (antibody, V domains shown)
VH: B1 VH with T33C, H98R
VL: B1 VL
B11: HC-I051E (antibody, V domains shown)
VH: B1 VH with I51E, H98R
VL: B1 VL
B12: HC-R098Q (antibody, V domains shown)
VH: B1 VH with H98Q
VL: B1 VL
B13: HC-G099E (antibody, V domains shown)
VH: B1 VH with H98R, G99E
VL: B1 VL
B14: HC-G105D (antibody, V domains shown)
VH: B1 VH with H98R, G105D
VL: B1 VL
B15: HC-D110L (antibody, V domains shown)
VH: B1 VH with H98R, D110L
VL: B1 VL
B16: HC-N052L (antibody, V domains shown)
VH: B1 VH with N52L, H98R
VL: B1 VL
B17: HC-M034Y (antibody, V domains shown)
VH: B1 VH with M34Y, H98R
VL: B1 VL
B18: HC-L101F (antibody, V domains shown)
VH: B1 VH with H98R, L101F
VL: B1 VL
B19: HC-G050S (antibody, V domains shown)
VH: B1 VH with G50S, H98R
VL: B1 VL
B20: HC-W112L (antibody, V domains shown)
VH: B1 VH with H98R, W112L
VL: B1 VL
B21: HC-M034E (antibody, V domains shown)
VH: B1 VH with M34E, H98R
VL: B1 VL
B22: HC-M034D (antibody, V domains shown)
VH: B1 VH with M34D, H98R
VL: B1 VL

These binders were tested against T1, human Ror2 (human, UniProt Q01974 34-403, limits assumed) (assay: ELISA, human Ror2, pH 6.0).
T1 construct: also called hROR2; receptor tyrosine kinase-like orphan receptor 2
T1 sequence (Q01974 34-403 limits assumed): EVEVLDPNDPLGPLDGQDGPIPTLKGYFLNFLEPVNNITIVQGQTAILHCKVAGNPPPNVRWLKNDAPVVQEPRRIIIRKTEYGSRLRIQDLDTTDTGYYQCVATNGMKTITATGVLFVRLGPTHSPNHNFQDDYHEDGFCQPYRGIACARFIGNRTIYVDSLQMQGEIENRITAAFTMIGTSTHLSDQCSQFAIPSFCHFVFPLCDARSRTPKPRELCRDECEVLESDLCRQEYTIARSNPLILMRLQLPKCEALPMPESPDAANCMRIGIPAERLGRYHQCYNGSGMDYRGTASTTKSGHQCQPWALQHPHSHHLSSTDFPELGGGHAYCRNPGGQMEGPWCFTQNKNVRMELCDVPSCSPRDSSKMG

Affinity ELISA pH 6.0 | Binder
0.928 | B1
1.86 | B2
0.794 | B3
1.08 | B4
0.87 | B5
0.224 | B6
1.47 | B7
0.995 | B8
1.34 | B9
0.626 | B10
1.04 | B11
0.799 | B12
0.616 | B13
0.509 | B14
1.68 | B15
0.911 | B16
0.903 | B17
1.46 | B18
0.823 | B19
1.75 | B20
1.17 | B21
1.24 | B22

Each binder was assayed against T1, human Ror2 (assay: ELISA, human Ror2, pH 7.4).

Affinity ELISA pH 7.4 | Binder
0.353 | B1
1.4 | B2
0.655 | B3
0.793 | B4
0.34 | B5
0.115 | B6
0.51 | B7
0.431 | B8
0.742 | B9
0.232 | B10
0.1 | B11
0.276 | B12
0.421 | B13
0.379 | B14
1.4 | B15
0.433 | B16
0.391 | B17
1.41 | B18
0.318 | B19
1.7 | B20
0.185 | B21
0.211 | B22

The binders below were run against T1, human Ror2 (assay: ELISA, human Ror2; ratio of signal at pH 6.0 to pH 7.4).

ratio, pH 6.0/7.4 | Binder
2.63 | B1
1.68 | B2
1.21 | B3
1.36 | B4
2.56 | B5
1.95 | B6
2.88 | B7
2.31 | B8
1.81 | B9
2.7 | B10
10.4 | B11
2.89 | B12
1.46 | B13
1.34 | B14
1.68 | B15
2.1 | B16
2.31 | B17
1.46 | B18
2.6 | B19
1.75 | B20
6.3 | B21
5.9 | B22
